The target in test [1] is HLA-C*15:02. In words: IEDB peptide-MHC binding, purified MHC/direct/fluorescence; filed as Kd, often an IC50 or EC50 that approximates it; ≥ and ≤ were set here for values at or beyond the usual limits of such assays. The following applies: source organism: Yersinia pestis Nepal516.
Test [2] concerns the target HLA-C*06:02. Described as above.
The target of test [3] is HLA-B*35:01. As to the kind of experiment: IEDB peptide-MHC binding, purified MHC/competitive/fluorescence; filed as Kd, often an IC50 or EC50 that approximates it; ≥ and ≤ were set here for values at or beyond the usual limits of such assays. The following applies: source organism: Yersinia pestis Nepal516.
In test [4] the target is HLA-A*68:23. The test is described as above.
Test [5] addresses HLA-A*32:15. The test is described as above.
In test [6] the target is HLA-C*14:02. The description is as above.
Test [7] concerns the target HLA-C*04:01. The description is as above.
The target of test [8] is HLA-B*15:42. Described as above.
Test [9] concerns the target HLA-A*32:07. Described as above.
For test [10], the target named is HLA-B*45:06. The description is as above.
The target of test [11] is HLA-B*40:13. Described as above.
The target of test [12] is HLA-B*15:01. Described as above. To be noted: source organism: Yersinia pestis Nepal516.
In test [13] the target is HLA-B*83:01. The description is as above.
Test [14] concerns the target HLA-C*04:01. In words: IEDB peptide-MHC binding, purified MHC/direct/fluorescence; filed as Kd, often an IC50 or EC50 that approximates it; ≥ and ≤ were set here for values at or beyond the usual limits of such assays.
Test [15] has as its target HLA-B*39:01. In words: IEDB peptide-MHC binding, purified MHC/competitive/fluorescence; filed as Kd, often an IC50 or EC50 that approximates it; ≥ and ≤ were set here for values at or beyond the usual limits of such assays. The following applies: source organism: Escherichia coli str. K-12 substr. MG1655.
The target in test [16] is HLA-A*24:03. The test is described as above.
For test [17], the target named is HLA-B*07:02. In words: IEDB peptide-MHC binding, purified MHC/direct/fluorescence; filed as Kd, often an IC50 or EC50 that approximates it; ≥ and ≤ were set here for values at or beyond the usual limits of such assays. The following applies: source organism: Influenza A virus (A/equine/Massachussetts/213/2003(H3N8)).
Test [18] concerns the target HLA-A*02:01. Described as above.
In test [19] the target is HLA-B*46:01. The test is described as above. To be noted: source organism: Influenza A virus (A/equine/Massachussetts/213/2003(H3N8)).
The target of test [20] is HLA-A*69:01. The description is as above. The following applies: source organism: Influenza A virus (A/equine/Massachussetts/213/2003(H3N8)).
For test [21], the target named is HLA-A*24:02. The test is described as above. To be noted: source organism: Influenza A virus (A/equine/Massachussetts/213/2003(H3N8)).
Test [22] addresses HLA-A*31:01. The test is described as above. To be noted: source organism: Influenza A virus (A/equine/Massachussetts/213/2003(H3N8)).
Test [23] concerns the target HLA-B*15:09. The test is described as above. To be noted: source organism: Influenza A virus(A/swine/Henan/8/2004(H9N2)).
Test [24] concerns the target HLA-A*03:01. The test is described as above.
The target in test [25] is HLA-B*27:05. The description is as above. The following applies: source organism: Influenza A virus (A/equine/Massachussetts/213/2003(H3N8)).
The target in test [26] is HLA-B*18:01. The test is described as above. The following applies: source organism: Influenza A virus (A/equine/Massachussetts/213/2003(H3N8)).
The target of test [27] is HLA-A*11:01. The test is described as above. To be noted: source organism: Influenza A virus (A/equine/Massachussetts/213/2003(H3N8)).
Test [28] has as its target HLA-B*58:01. Described as above. The following applies: source organism: Influenza A virus (A/equine/Massachussetts/213/2003(H3N8)).
The target of test [29] is HLA-A*01:01. The description is as above. The following applies: source organism: Influenza A virus (A/equine/Massachussetts/213/2003(H3N8)).
Test [30] addresses HLA-B*40:01. The test is described as above. The following applies: source organism: Influenza A virus (A/equine/Massachussetts/213/2003(H3N8)).
In test [31] the target is HLA-B*15:01. The test is described as above. To be noted: source organism: Influenza A virus (A/Puerto Rico/8/34/Mount Sinai(H1N1)).
The target in test [32] is HLA-C*05:01. The description is as above. To be noted: source organism: Orthohantavirus sinnombreense.
The target in test [33] is HLA-A*03:19. As to the kind of experiment: IEDB peptide-MHC binding, purified MHC/competitive/fluorescence; filed as Kd, often an IC50 or EC50 that approximates it; ≥ and ≤ were set here for values at or beyond the usual limits of such assays. To be noted: source organism: Orthohantavirus sinnombreense.
For test [34], the target named is HLA-B*27:03. The description is as above. The following applies: source organism: Orthohantavirus sinnombreense.
The target in test [35] is HLA-B*51:01. Described as above. To be noted: source organism: Orthohantavirus sinnombreense.
Test [36] addresses HLA-C*06:02. Described as above. The following applies: source organism: Orthohantavirus sinnombreense.
The target of test [37] is HLA-B*18:01. The description is as above. To be noted: source organism: Orthohantavirus sinnombreense.
Test [38] addresses HLA-A*26:01. Described as above. The following applies: source organism: Orthohantavirus sinnombreense.
For test [39], the target named is HLA-C*12:03. As to the kind of experiment: IEDB peptide-MHC binding, purified MHC/direct/fluorescence; filed as Kd, often an IC50 or EC50 that approximates it; ≥ and ≤ were set here for values at or beyond the usual limits of such assays. The following applies: source organism: Bacillus anthracis str. A0488.
For test [40], the target named is HLA-A*03:01. In words: IEDB peptide-MHC binding, purified MHC/competitive/fluorescence; filed as Kd, often an IC50 or EC50 that approximates it; ≥ and ≤ were set here for values at or beyond the usual limits of such assays. The following applies: source organism: Cryptosporidium parvum Iowa II.
The target of test [41] is HLA-B*27:20. Described as above. To be noted: source organism: Burkholderia mallei SAVP1.
The target of test [42] is HLA-B*48:01. The test is described as above. To be noted: source organism: Burkholderia mallei SAVP1.
Setting [43] is: source organism: Yersinia pestis Nepal516.
Setting [44] is: source organism: Escherichia coli str. K-12 substr. MG1655.
Where [45] appears, read: source organism: Influenza A virus (A/equine/Massachussetts/213/2003(H3N8)).
Setting [46] is: source organism: Orthohantavirus sinnombreense.
Where [47] appears, read: source organism: Bacillus anthracis str. A0488.
Where [48] appears, read: source organism: Cryptosporidium parvum Iowa II.
[49] abbreviates: source organism: Burkholderia mallei SAVP1.

pKd: −log10 of the molar value.

In the case of MMMSTAVAF, the negative logarithm of the Kd (pKd) (usually −log10 of the Kd, conventionally taken in molar units) is at most 4.70 in [1]; at most 4.70 in test [2] (setting [43]); 9.22 in test [3]; 6.19 in test [4] (setting [43]); 6.61 in test [5] (setting [43]); 8.96 in [6] (setting [43]). Further, the pKd was 5.49 in test [7] (setting [43]); at most 5.30 in test [8] (setting [43]); 7.02 in test [9] (setting [43]); at most 5.30 in test [10] (setting [43]); 6.44 in test [11] (setting [43]); 6.27 in test [12]. This sequence had a pKd in [13] (setting [43]) of at most 5.30.

Turning to RYDKSAADL, the results for the pKd in [14] (setting [44]), in test [15] and in [16] (setting [44]) were at most 4.70, at most 4.70 and 6.32, respectively.

On to ILKGKFQTA, for which the pKd in [17], in test [18] (setting [45]), in [19], in test [20], in test [21] and in test [22] was at most 4.70 each time. Further, the pKd in test [23], in [24] (setting [45]), in [25], in [26], in test [27] and in [28] was at most 4.70 in each case. The pKd in test [29] was at most 4.70; in test [30], at most 4.70; in [31] it was 5.24.

For YTFTSLFSL, the pKd is 8.82 in test [18] (source organism: Itapua hantavirus); at most 4.70 in [32]; at most 4.70 in test [24] (source organism: Limestone Canyon virus); 5.51 in [33]; at most 4.70 in test [34]; 7.85 in test [4] (setting [46]). Also, the pKd in test [5] (setting [46]) was 7.09; in [35] it was at most 4.70; in [6] (setting [46]), 8.24; in test [8] (setting [46]), at most 5.30; in [36], 6.84; in test [9] (setting [46]), 6.07. For the same sequence, the pKd in test [37] was at most 4.70; in test [10] (setting [46]), at most 5.30; in [38], at most 4.70; in [13] (setting [46]), at most 5.30.

On to YFIFVRAIL, for which the values for the pKd in test [14] (setting [47]), in test [39] and in [16] (setting [47]) were at most 4.70, 6.36 and 7.44, respectively.

With VGYYTFHPK, the pKd is at most 5.30 in test [7] (setting [48]); at most 5.30 in test [8] (setting [48]); 9.05 in [40]; at most 5.30 in [10] (setting [48]); at most 5.30 in [13] (setting [48]).

With RQYERYTAL, the pKd in [2] (setting [49]) is 5.74; in test [8] (setting [49]), 6.13; in test [9] (setting [49]), 8.12; in test [10] (setting [49]) it was at most 5.30; in test [41] it was 9.52; in test [42] it was 7.26. Also, the pKd is 7.42 in test [11] (setting [49]) and at most 5.30 in test [13] (setting [49]).

The values above are taken from the Immune Epitope Database (IEDB).
